Results: patent publication US20240116985A1 (published 2024)
Starred links: 1 amine or outer side, 2 acyl side, 3 side chain; linkers in the order of their positions; H or OH if unused. Positions of bridges follow the written chain, without caps; N, C: chain ends. Non-standard residues stand in square brackets, D forms with d. Primed or numbered codes have the meaning given here. RdN(3) = (R)-4-(((allyloxy)carbonyl)(methyl)amino)-2-amino-2-methylbutanoic acid, stapling residue, C=CCOC(=O)N(C)CC[C@@](C)(N[*:1])C(=O)[*:2]; RdN″ = (R)-4-(((allyloxy)carbonyl)(methyl)amino)-2-amino-2-methylbutanoic acid (stapling residue), C=CCOC(=O)N(C)CC[C@@](C)(N[*:1])C(=O)[*:2]; RgN = (R)-3-(((allyloxy)carbonyl)(methyl)amino)-2-amino-2-methylpropanoic acid (stapling residue), C=CCOC(=O)N(C)C[C@@](C)(N[*:1])C(=O)[*:2]; PyrS(3) = (S)-1-((allyloxy)carbonyl)-3-aminopyrrolidine-3-carboxylic acid, stapling residue, C=CCOC(=O)N1CC[C@@](N[*:1])(C(=O)[*:2])C1; PyrS″ = (S)-1-((allyloxy)carbonyl)-3-aminopyrrolidine-3-carboxylic acid (stapling residue), C=CCOC(=O)N1CC[C@@](N[*:1])(C(=O)[*:2])C1; RdN = (R)-4-(((allyloxy)carbonyl)(methyl)amino)-2-amino-2-methylbutanoic acid, C=CCOC(=O)N(C)CC[C@@](C)(N[*:1])C(=O)[*:2]; Az = 1-((allyloxy)carbonyl)-3-aminoazetidine-3-carboxylic acid (stapling residue), C=CCOC(=O)N1CC(N[*:1])(C(=O)[*:2])C1; PyrS = (S)-1-((allyloxy)carbonyl)-3-aminopyrrolidine-3-carboxylic acid, C=CCOC(=O)N1CC[C@@](N[*:1])(C(=O)[*:2])C1; Az(3) = 1-((allyloxy)carbonyl)-3-aminoazetidine-3-carboxylic acid, C=CCOC(=O)N1CC(N[*:1])(C(=O)[*:2])C1; R7 = (R)-2-amino-2-methylnon-8-enoic acid, C=CCCCCC[C@@](C)(N[*:1])C(=O)[*:2]; S7 = C[C@@](CCCCCC=[*:3])(N[*:1])C(=O)[*:2]; Phe(3-F) = N[C@@H](Cc1cccc(F)c1)C(=O)O; 2Pal = N[C@@H](Cc1ccccn1)C(=O)O; 3Pal = N[C@@H](Cc1cccnc1)C(=O)O; R8 = C=CCCCCCC[C@@](C)(N)C(=O)O; Cha = N[C@@H](CC1CCCCC1)C(=O)O; S8 = C=CCCCCCC[C@](C)(N)C(=O)O; Nle = CCCC[C@H](N)C(=O)O

T1: full-length beta-Catenin (Uniprot ID P35222) (Homo sapiens (Human), UniProt P35222 2-781)
T1 construct: Used full-length in both the FP and the AlphaScreen assay; also called B-Catenin; bCat
T1 sequence: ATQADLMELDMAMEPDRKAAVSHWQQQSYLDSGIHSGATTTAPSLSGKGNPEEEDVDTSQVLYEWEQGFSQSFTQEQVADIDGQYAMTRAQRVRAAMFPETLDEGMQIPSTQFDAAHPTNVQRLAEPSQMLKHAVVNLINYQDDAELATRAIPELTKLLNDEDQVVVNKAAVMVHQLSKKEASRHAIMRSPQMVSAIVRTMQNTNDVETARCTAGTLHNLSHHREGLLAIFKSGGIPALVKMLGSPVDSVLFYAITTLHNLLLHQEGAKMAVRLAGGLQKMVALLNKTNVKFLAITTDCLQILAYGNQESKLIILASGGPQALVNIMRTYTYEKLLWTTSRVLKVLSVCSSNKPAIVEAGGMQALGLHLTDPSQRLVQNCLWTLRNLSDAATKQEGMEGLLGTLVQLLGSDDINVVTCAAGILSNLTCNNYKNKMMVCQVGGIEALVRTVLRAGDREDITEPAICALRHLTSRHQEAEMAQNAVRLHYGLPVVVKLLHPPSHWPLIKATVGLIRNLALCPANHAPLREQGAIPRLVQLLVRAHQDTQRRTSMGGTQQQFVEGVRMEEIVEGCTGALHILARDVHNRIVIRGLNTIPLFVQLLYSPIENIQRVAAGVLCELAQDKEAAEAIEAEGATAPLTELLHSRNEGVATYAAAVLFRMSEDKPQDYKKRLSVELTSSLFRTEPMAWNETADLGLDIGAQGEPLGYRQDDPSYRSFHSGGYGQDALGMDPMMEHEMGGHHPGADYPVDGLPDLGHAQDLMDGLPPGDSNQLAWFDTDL

T2: full-length beta-Catenin (Uniprot ID P35222) (Homo sapiens (Human), UniProt P35222 2-781)
T2 construct: The assay text says 'full-length'; also called B-Catenin; bCat
T2 sequence: T1 sequence

B1: I-51 (peptide)
peptide: Ac-FD[R8]ADDAAF[PyrS(3)]AFWQ-NH2
modifications: staple 3-10
notes: Stapled peptide; also called Ac-Phe-Asp-R8-Ala-Asp-Asp-Ala-Ala-Phe-PyrS-Ala-Phe-Trp-Gln-NH2
B2: I-75 (peptide)
peptide: Ac-FDA[R8]DDAA[Cha]V[PyrS″]FWQ-NH2
modifications: staple 4-11; not fully specified; printed as Ac-Phe-Asp-Ala-R8-Asp-Asp-Ala-Ala-Cha-Val-PyrS-Phe-Trp-Gln-NH2
notes: Stapled peptide; also called Ac-Phe-Asp-Ala-R8-Asp-Asp-Ala-Ala-Cha-Val-PyrS-Phe-Trp-Gln-NH2
B3: I-81 (peptide)
peptide: Ac-FDA[R8]DDAAFV[PyrS″][2Pal]WQ-NH2
modifications: staple 4-11
notes: Stapled peptide; also called Ac-Phe-Asp-Ala-R8-Asp-Asp-Ala-Ala-Phe-Val-PyrS-2PyrA-Trp-Gln-NH2
B4: I-83 (peptide)
peptide: Ac-FDA[R8]DDAAFV[PyrS][3Pal]WQ-NH2
modifications: staple 4-11
notes: Stapled peptide; also called Ac-Phe-Asp-Ala-R8-Asp-Asp-Ala-Ala-Phe-Val-PyrS-3PyrA-Trp-Gln-NH2
B5: I-49 (peptide)
peptide: Ac-FD[RdN(3)]ADDAAF[S7]AFWQ-NH2
modifications: staple 3-10; also: earlier-eluting HPLC isomer, E/Z not assigned
notes: Stapled peptide; also called Ac-Phe-Asp-RdN-Ala-Asp-Asp-Ala-Ala-Phe-S7-Ala-Phe-Trp-Gln-NH2
B6: I-77 (peptide)
peptide: Ac-FDA[R8]DDAA[Phe(3-F)]V[PyrS]FWQ-NH2
modifications: staple 4-11
notes: Stapled peptide; also called Ac-Phe-Asp-Ala-R8-Asp-Asp-Ala-Ala-3FF-Val-PyrS-Phe-Trp-Gln-NH2
B7: I-72 (peptide)
peptide: Ac-ADI[RdN]D[Cha]AAFQ[S7]FWH-NH2
modifications: staple 4-11; not fully specified; printed as Ac-Ala-Asp-Ile-RdN-Asp-Cha-Ala-Ala-Phe-Gln-S7-Phe-Trp-His-NH2
notes: Stapled peptide; also called Ac-Ala-Asp-Ile-RdN-Asp-Cha-Ala-Ala-Phe-Gln-S7-Phe-Trp-His-NH2
B8: I-69 (peptide)
peptide: Ac-ADI[RdN″]D[Nle]AAFQ[S7]FWH-NH2
modifications: staple 4-11
notes: Stapled peptide; also called Ac-Ala-Asp-Ile-RdN-Asp-nLeu-Ala-Ala-Phe-Gln-S7-Phe-Trp-His-NH2
B9: I-68 (peptide)
peptide: Ac-ADI[RdN″]D[Nle]AAFQ[S7]FWH-NH2
modifications: staple 4-11
notes: as for B8
B10: I-76 (peptide)
peptide: Ac-FDA[R8]DDAA[Nle]V[PyrS(3)]FWQ-NH2
modifications: staple 4-11
notes: Stapled peptide; also called Ac-Phe-Asp-Ala-R8-Asp-Asp-Ala-Ala-nLeu-Val-PyrS-Phe-Trp-Gln-NH2
B11: I-82 (peptide)
peptide: Ac-FDA[R8]DDAAFV[PyrS″][3Pal]WQ-NH2
modifications: staple 4-11
notes: as for B4
B12: I-42 (peptide)
peptide: FDAXDDAAFVXFWQ
modifications: not fully specified; Ac-Phe-Asp-Ala-RdN-Asp-Asp-Ala-Ala-Phe-Val-S4-Phe-Trp-Gln-NH2 as printed: N-terminal acetyl, C-terminal amide, RdN at 4 stapled to S4 at 11
notes: Stapled peptide composition
B13: I-40 (peptide)
peptide: Ac-FDA[R8]DDAAFV[Az]FWQ-NH2
modifications: staple 4-11; not fully specified; printed as Ac-Phe-Asp-Ala-R8-Asp-Asp-Ala-Ala-Phe-Val-Az-Phe-Trp-Gln-NH2
notes: Stapled peptide composition
B14: I-39 (peptide)
peptide: Ac-FDA[R8]DDAAFV[Az(3)]FWQ-NH2
modifications: staple 4-11; not fully specified; printed as Ac-Phe-Asp-Ala-R8-Asp-Asp-Ala-Ala-Phe-Val-Az-Phe-Trp-Gln-NH2
notes: Stapled peptide composition
B15: I-41 (peptide)
peptide: FDAXDDAAFVXFWQ
modifications: not fully specified; Ac-Phe-Asp-Ala-RdN-Asp-Asp-Ala-Ala-Phe-Val-S4-Phe-Trp-Gln-NH2 as printed: N-terminal acetyl, C-terminal amide, RdN at 4 stapled to S4 at 11
notes: Stapled peptide composition
B16: I-43 (peptide)
peptide: FDAXDDAAFVXFWQ
modifications: not fully specified; Ac-Phe-Asp-Ala-RgN-Asp-Asp-Ala-Ala-Phe-Val-S8-Phe-Trp-Gln-NH2 as printed: N-terminal acetyl, C-terminal amide, RgN at 4 stapled to S8 at 11
notes: Stapled peptide composition

The binders below were run against T1, full-length beta-Catenin (Uniprot ID …) (assay: AlphaScreen competition; full-length beta-catenin, biotin-TCF4(10-53) probe).
Description: (§1) Equal volume of the titrated peptide was added to the plate and incubated for 15 minutes at 20° C. Then 4 uL of donor and 4 uL acceptor beads at 10 ug/mL were added to the plate, for a 16 uL reaction pool and protected from light for 60 minutes at 20° C. prior to read. Reads were performed on a CLARIOstar plate reader (BMG Labtech) in duplicate, and data were fitted to a 1:1 binding model with hill slope using an in-house script. All provided concentrations are final concentrations.

EC50 [µM]	Binder
≥ 10	B1
≥ 10	B2
9.78	B3
≥ 10	B4
≥ 10	B5
≥ 10	B6
≥ 10	B7
9.1	B8
8.12	B9
≥ 10	B10
≥ 10	B11

The binders below were run against T2, full-length beta-Catenin (Uniprot ID …) (assay: AlphaScreen competition vs biotin-TCF4(10-53) on full-length beta-catenin).
Description: as §1

EC50 [µM]	Binder
≥ 10	Ac-FDA[R7]DDAAFV[Az(3)]FWQ-NH2 (staple 4-11, Stapled peptide composition) [I-38]
9.34	B12
≥ 10	B13
≥ 10	Ac-FDA[RgN]DDAAFV[S8]FWQ-NH2 (staple 4-11, Stapled peptide composition) [I-44]
≥ 10	B14
≥ 10	B15
≥ 10	Ac-FDA[RgN]DDAAFV[S7]FWQ-NH2 (staple 4-11, Stapled peptide composition) [I-45]
≥ 10	B16
